From patent US20180086804A1 (COMMISSARIAT A L ENERGIE ATOMIQUE ET AUX ENERGIES …, published 2018)
No end group written: not given here.

Columns and labels:
[1] = target: T1, HLA-DR13 (HLA-DRB1*13:01) (human); test: competition ELISA vs biotin-B1 21-36
T1 chain 1: not shown
T1 chain 2: not shown

[2] = target: T2, HLA-DR15 (HLA-DRB1*15:01) (human); test: competition ELISA vs biotin-A3 152-166
T2 construct: mature; purified from homozygous EBV-transformed lymphoblastoid cells with antibody L243

HLA-DR4 (HLA-DRB1*04:01) = target: T3, HLA-DR4 (HLA-DRB1*04:01) (human); test: competition ELISA vs biotin-HA 306-318;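 also: HLA and competitor incubated 24 to 72 h, maximal signal taken from wells lacking competitor, background from wells lacking HLA molecule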
T3 construct: mature; purified from homozygous EBV-transformed lymphoblastoid cells with antibody L243

[3] = target: T4, HLA-DR11 (HLA-DRB1*11:01) (human); test: competition ELISA vs biotin-HA 306-318;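 also: HLA and competitor incubated 24 to 72 h, maximal signal taken from wells lacking competitor, background from wells lacking HLA molecule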
T4 construct: mature; purified from homozygous EBV-transformed lymphoblastoid cells with antibody L243

HLA-DR1 (HLA-DRB1*01:01) = target: T5, HLA-DR1 (HLA-DRB1*01:01) (human); test: competition ELISA vs biotin-HA 306-318;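 also: HLA and competitor incubated 24 to 72 h, maximal signal taken from wells lacking competitor, background from wells lacking HLA molecule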
T5 construct: mature; class II HLA molecule purified from homozygous EBV-transformed lymphoblastoid cells with antibody L243

HLA-DR7 (HLA-DRB1*07:01) = target: T6, HLA-DR7 (HLA-DRB1*07:01) (human); test: competition ELISA vs biotin-YKL
T6 construct: mature; purified from homozygous EBV-transformed lymphoblastoid cells with antibody L243

[4] = target: T7, HLA-DR13 (HLA-DRB1*13:01) (human); test: competition ELISA vs biotin-B1 21-36
T7 construct: mature; purified from homozygous EBV-transformed lymphoblastoid cells with antibody L243

[5] = target: T8, HLA-DP402 (HLA-DPB1*04:02) (human, UniProt P20036 29-222); test: competition ELISA vs biotin-Oxy 271-287
T8 construct: mature; purified from homozygous EBV-transformed lymphoblastoid cells with antibody B7/21

[6] = target: T9, HLA-DRB3 (HLA-DRB3*01:01) (human); test: competition ELISA vs biotin-LOL 191-210
T9 construct: mature; purified from homozygous EBV-transformed lymphoblastoid cells with antibody L243

HLA-DR3 (HLA-DRB1*03:01) = target: T10, HLA-DR3 (HLA-DRB1*03:01) (human); test: competition ELISA vs biotin-MT 2-16
T10 construct: mature; purified from homozygous EBV-transformed lymphoblastoid cells with antibody L243

[7] = target: T11, HLA-DRB5 (HLA-DRB5*01:01) (human); test: competition ELISA vs biotin-HA 306-318;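 also: HLA and competitor incubated 24 to 72 h, maximal signal taken from wells lacking competitor, background from wells lacking HLA molecule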
T11 construct: mature; purified from homozygous EBV-transformed lymphoblastoid cells with antibody L243

[8] = target: T12, HLA-DP401 (HLA-DPB1*04:01) (human, UniProt P20036 29-222); test: competition ELISA vs biotin-Oxy 271-287
T12 construct: mature; purified from homozygous EBV-transformed lymphoblastoid cells with antibody B7/21

[9] = target: T13, HLA-DRB4 (HLA-DRB4*01:01) (human); test: competition ELISA vs biotin-E2/E168
T13 construct: mature; purified from homozygous EBV-transformed lymphoblastoid cells with antibody L243

Row | Binder | IC50 [1] | relative affinity [2] | relative affinity (HLA-DR4 (HLA-DRB1*04:01)) | relative affinity [3] | relative affinity (HLA-DR1 (HLA-DRB1*01:01)) | relative affinity (HLA-DR7 (HLA-DRB1*07:01)) | relative affinity [4] | relative affinity [5] | relative affinity [6] | relative affinity (HLA-DR3 (HLA-DRB1*03:01)) | relative affinity [7] | relative affinity [8] | relative affinity [9]
1 | TERVRLVTRHIYNREE (modifications not checked) [B1 21-36] | 51 nM |  |  |  |  |  |  |  |  |  |  |  | 
2 | NSALVQDLAKAVAKV-NH2 [CCNB1 419-433] |  | 7 | 333 | 3 | 155 | 183 | 37 | 148 | 7 | 1 |  |  | 
3 | MEMKILRALNFGLGR-NH2 [CCNB1 285-299] |  | 0.03 | 7 | 4 | 1 | 0.1 | 1 | 4 |  | 51 | 2 | 30 | 18
4 | HTLAKYLMELTMLDY-NH2 [CCNB1 320-334] |  | 3 | 1 | 2 | 16 | 18 | 10 | 3 | 24 | 1 | 17 | 8 | 18
5 | AKYLMELTMLDYDMV-NH2 [CCNB1 323-337] |  | 2 | 0.2 | 0.4 | 4 | 8 |  | 6 | 41 | 2 | 2 | 1 | 7
6 | AKISTLPQLNSALVQ-NH2 [CCNB1 410-424] |  | 12 | 408 | 1 | 89 |  | 94 | 1120 |  |  |  |  | 966
7 | PQLNSALVQDLAKAV-NH2 [CCNB1 416-430] |  | 71 | 54 | 123 | 693 | 47 |  | 74 | 3 | 9 | 548 | 59 | 1800
